Reference: IntAct's records for PubMed 11001931

Target: fhl2_human FHL2 (UniProt Q14192)
Sequence (Q14192 whole entry): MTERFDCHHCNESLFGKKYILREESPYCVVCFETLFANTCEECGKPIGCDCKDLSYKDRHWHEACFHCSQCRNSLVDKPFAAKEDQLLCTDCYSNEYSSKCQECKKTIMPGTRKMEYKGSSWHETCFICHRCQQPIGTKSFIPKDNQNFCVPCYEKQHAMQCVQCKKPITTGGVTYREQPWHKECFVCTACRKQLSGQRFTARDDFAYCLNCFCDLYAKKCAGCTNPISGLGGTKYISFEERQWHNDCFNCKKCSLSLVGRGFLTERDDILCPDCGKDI

Chain of Presenilin-2 (Homo sapiens), P49810 K271A (P49810 whole entry K271A): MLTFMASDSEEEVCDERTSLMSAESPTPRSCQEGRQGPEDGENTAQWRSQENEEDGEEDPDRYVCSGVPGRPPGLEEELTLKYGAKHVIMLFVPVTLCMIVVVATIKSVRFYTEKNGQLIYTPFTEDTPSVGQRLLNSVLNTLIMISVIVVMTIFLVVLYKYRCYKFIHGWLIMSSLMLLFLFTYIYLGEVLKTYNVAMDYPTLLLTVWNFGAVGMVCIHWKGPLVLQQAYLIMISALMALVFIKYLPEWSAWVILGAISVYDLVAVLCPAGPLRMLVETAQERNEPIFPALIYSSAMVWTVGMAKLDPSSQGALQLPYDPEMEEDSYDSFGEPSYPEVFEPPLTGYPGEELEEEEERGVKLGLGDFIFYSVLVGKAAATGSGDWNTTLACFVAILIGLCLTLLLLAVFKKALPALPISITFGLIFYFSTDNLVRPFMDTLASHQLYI
Chain of Presenilin-2 (Homo sapiens), P49810 M276A (P49810 whole entry M276A): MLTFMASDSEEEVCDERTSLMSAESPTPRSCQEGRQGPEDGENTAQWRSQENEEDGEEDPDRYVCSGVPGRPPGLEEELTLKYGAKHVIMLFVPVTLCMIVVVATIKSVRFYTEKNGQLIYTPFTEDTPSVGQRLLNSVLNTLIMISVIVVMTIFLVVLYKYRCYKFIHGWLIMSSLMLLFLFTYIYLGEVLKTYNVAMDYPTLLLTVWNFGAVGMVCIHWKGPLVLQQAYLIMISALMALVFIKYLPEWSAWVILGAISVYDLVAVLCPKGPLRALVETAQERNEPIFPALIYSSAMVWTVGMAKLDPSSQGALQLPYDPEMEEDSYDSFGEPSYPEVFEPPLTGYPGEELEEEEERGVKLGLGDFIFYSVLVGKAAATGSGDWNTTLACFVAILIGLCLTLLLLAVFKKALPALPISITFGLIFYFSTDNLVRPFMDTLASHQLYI
Chain of Presenilin-2 (Homo sapiens), P49810 L274A (P49810 whole entry L274A): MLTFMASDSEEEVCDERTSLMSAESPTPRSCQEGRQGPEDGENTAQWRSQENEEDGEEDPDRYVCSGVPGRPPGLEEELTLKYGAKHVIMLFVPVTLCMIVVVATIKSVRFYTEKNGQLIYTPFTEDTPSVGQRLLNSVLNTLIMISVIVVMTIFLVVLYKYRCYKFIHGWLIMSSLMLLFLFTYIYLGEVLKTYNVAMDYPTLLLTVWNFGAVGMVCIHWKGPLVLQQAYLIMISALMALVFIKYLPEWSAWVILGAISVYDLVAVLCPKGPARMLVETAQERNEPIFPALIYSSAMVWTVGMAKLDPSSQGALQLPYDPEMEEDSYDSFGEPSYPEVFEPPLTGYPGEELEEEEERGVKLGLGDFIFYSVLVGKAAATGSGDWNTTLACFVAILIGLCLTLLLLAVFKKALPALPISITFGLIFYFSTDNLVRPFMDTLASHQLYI
Chain of Presenilin-2 (Homo sapiens), P49810 G272A (P49810 whole entry G272A): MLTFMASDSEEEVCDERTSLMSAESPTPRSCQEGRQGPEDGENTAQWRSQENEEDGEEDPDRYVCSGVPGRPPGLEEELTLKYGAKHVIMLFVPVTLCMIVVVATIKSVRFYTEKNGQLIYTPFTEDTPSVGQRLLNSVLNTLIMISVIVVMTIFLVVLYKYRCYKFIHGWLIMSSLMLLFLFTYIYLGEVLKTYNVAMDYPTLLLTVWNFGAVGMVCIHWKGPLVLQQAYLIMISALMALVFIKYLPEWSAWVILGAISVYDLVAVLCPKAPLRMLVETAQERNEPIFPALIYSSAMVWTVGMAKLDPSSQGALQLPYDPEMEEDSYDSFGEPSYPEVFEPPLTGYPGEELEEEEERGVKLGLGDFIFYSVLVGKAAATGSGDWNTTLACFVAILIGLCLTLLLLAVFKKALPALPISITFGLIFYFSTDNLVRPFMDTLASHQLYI
Chain of Presenilin-2 (Homo sapiens), P49810 P270A (P49810 whole entry P270A): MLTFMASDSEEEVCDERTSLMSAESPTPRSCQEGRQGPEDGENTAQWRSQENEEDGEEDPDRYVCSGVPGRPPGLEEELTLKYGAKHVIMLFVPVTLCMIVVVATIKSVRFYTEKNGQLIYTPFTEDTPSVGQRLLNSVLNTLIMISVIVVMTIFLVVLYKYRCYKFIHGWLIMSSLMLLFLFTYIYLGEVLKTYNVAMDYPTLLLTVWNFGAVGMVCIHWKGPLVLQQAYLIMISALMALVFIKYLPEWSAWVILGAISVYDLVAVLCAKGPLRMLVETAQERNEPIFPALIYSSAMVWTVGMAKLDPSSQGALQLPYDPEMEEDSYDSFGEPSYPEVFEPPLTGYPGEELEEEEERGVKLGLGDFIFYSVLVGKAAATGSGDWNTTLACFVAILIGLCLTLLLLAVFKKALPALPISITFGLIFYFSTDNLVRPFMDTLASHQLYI
Chain of Presenilin-2 (Homo sapiens), P49810 R275A (P49810 whole entry R275A): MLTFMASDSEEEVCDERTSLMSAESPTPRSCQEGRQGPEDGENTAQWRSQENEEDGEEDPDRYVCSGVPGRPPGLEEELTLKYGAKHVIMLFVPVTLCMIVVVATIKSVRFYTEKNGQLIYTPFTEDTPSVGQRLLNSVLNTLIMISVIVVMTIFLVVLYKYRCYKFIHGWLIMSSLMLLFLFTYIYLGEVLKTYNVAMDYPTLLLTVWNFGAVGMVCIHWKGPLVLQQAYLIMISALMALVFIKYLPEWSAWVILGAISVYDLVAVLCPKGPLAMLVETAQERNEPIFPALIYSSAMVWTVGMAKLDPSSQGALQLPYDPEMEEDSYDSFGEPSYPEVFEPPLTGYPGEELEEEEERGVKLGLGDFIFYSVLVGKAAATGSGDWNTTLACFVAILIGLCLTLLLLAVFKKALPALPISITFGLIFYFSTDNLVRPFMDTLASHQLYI
Chain of Presenilin-2 (Homo sapiens), P49810 L277A (P49810 whole entry L277A): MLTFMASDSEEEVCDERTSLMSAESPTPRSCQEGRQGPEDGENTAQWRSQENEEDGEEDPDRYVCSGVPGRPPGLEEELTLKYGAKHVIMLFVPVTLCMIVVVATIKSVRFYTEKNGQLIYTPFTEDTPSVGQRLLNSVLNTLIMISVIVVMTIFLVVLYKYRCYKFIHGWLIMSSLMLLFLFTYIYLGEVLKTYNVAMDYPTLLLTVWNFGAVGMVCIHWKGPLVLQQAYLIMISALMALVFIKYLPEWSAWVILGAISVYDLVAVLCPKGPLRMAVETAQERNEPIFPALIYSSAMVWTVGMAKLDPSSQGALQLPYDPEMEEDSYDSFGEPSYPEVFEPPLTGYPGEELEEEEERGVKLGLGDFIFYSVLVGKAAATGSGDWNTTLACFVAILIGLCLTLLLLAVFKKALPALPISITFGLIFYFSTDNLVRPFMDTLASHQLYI
Chain of Presenilin-2 (Homo sapiens), P49810 V278A (P49810 whole entry V278A): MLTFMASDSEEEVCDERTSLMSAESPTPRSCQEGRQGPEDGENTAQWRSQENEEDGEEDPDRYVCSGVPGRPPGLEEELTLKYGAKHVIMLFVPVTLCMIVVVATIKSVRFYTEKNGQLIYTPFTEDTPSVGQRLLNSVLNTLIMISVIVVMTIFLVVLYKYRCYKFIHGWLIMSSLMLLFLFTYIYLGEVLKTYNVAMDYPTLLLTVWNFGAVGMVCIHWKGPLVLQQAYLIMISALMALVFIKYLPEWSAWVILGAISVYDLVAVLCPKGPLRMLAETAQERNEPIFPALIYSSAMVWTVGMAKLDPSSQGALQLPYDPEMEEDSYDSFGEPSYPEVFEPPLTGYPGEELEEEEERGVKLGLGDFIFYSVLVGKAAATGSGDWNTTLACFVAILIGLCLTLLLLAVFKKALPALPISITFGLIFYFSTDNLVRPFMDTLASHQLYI
Chain of Presenilin-2 (Homo sapiens), P49810 E279A (P49810 whole entry E279A): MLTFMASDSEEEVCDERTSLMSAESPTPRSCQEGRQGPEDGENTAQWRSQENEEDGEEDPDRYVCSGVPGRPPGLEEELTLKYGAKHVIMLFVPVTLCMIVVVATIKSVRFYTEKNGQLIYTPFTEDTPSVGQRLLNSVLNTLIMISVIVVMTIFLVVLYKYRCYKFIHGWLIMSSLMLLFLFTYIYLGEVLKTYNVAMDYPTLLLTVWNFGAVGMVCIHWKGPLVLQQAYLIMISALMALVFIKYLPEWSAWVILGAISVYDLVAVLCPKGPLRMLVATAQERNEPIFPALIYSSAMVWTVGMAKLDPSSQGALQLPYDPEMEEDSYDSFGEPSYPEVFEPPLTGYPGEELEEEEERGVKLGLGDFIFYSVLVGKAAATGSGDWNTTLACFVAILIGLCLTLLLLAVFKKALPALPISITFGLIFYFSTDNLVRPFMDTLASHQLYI
Chain of Presenilin-2 (Homo sapiens), P49810 P273A (P49810 whole entry P273A): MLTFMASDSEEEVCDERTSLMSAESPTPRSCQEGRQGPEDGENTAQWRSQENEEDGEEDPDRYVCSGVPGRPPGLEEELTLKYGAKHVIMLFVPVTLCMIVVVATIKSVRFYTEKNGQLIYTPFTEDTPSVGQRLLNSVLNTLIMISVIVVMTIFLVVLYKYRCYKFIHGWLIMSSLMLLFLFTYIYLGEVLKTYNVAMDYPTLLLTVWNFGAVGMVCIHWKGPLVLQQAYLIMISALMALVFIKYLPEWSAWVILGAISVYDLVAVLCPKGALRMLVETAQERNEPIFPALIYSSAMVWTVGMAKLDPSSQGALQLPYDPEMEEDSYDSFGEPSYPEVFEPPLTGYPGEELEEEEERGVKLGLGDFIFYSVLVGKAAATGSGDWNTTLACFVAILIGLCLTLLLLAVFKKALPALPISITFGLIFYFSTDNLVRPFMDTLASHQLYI

effect of a mutation on the interaction	Substance
decreasing interaction strength	Presenilin-2 (Homo sapiens), P49810 L274A
decreasing interaction strength	Presenilin-2 (Homo sapiens), P49810 L277A
decreasing interaction strength	Presenilin-2 (Homo sapiens), P49810 M276A
decreasing interaction strength	Presenilin-2 (Homo sapiens), P49810 P270A
decreasing interaction strength	Presenilin-2 (Homo sapiens), P49810 P273A
decreasing interaction strength	Presenilin-2 (Homo sapiens), P49810 V278A

The next lines start with the substance.

Substance	effect of a mutation on the interaction
Presenilin-2 (Homo sapiens), P49810 E279A	decreasing interaction strength
Presenilin-2 (Homo sapiens), P49810 G272A	decreasing interaction strength
Presenilin-2 (Homo sapiens), P49810 K271A	with no effect
Presenilin-2 (Homo sapiens), P49810 R275A	disrupting interaction strength
